From patent US20250101108

What was measured:
[1] = molecular target: PD-L1 (UniProt Q9NZQ7)
[2] = molecular target: PD-L1-FLAG (UniProt Q9NZQ7)
[3] = molecular target: PD-L2-FLAG (UniProt Q9BQ51)
Chain of PD-L2-FLAG (Q9BQ51 20-273): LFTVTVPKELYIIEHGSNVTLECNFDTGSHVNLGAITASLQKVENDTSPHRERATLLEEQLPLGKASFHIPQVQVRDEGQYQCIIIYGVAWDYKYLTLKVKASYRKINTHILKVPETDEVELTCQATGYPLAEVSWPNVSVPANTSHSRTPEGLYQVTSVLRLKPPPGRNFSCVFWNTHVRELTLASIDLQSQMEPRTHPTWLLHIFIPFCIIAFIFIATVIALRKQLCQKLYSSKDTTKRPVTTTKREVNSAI

Chain of E3 ligase ITCH (chain, as listed by the source): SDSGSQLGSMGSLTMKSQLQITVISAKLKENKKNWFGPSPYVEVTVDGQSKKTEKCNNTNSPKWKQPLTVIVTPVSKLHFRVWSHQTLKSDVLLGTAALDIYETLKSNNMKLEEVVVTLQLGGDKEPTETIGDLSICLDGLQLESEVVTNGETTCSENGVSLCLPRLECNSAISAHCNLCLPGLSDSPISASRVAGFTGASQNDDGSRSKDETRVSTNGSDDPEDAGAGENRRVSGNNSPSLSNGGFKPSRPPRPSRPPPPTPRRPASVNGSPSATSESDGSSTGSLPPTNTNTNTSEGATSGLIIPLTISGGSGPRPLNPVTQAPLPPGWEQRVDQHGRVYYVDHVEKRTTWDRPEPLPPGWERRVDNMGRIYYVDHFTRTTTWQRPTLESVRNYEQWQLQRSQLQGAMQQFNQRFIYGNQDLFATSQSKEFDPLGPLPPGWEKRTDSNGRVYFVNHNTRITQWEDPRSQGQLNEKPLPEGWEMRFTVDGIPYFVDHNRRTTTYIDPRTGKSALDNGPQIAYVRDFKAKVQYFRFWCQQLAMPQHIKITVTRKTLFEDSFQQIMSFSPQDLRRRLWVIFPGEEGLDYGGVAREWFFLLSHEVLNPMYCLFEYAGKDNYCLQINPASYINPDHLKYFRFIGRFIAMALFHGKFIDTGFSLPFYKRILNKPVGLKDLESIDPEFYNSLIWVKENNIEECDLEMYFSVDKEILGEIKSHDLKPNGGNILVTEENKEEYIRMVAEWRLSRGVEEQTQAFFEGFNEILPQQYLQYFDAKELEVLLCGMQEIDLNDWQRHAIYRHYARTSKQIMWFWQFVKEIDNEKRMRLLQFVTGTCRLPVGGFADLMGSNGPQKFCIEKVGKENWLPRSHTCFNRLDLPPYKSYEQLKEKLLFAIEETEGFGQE
Chain of PD-L1-FLAG (Q9NZQ7 19-290): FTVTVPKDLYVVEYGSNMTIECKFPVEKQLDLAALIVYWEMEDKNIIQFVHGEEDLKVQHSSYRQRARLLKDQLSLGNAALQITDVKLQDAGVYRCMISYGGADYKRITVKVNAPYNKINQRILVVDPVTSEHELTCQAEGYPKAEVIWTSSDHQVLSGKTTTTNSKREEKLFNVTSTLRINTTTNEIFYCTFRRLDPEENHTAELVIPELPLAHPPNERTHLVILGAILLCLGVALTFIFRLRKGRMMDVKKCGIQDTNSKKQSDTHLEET
Chain of PD-L1 (Q9NZQ7 19-290): as above

E3 ligase ITCH
poly-ubiquitination of endogenous PD-L1 (anti-PD-L1 IP, Western blot of ubiquitin) [1]: knockdown of endogenous ITCH reduced PD-L1 poly-ubiquitination (FIGS. 2F, 2G), while over-expression of ITCH increased PD-L1 poly-ubiquitination (FIG. 2H) | poly-ubiquitination (anti-FLAG IP, Western blot of ubiquitin) [2]: co-transfection of ITCH with either PD-L1-FLAG (FIG. 2E) or PD-L2-FLAG (FIG. 9I) led to poly-ubiquitination of PD-L1 or PD-L2, respectively | ubiquitination sites by mass spectrometry [2]: Mass spectrometry analysis identified lysine 46 (K46) and K162 of PD-L1 as major ubiquitination sites caused by ITCH over-expression in 293T cells | poly-ubiquitination (anti-FLAG IP, Western blot of ubiquitin) [3]: co-transfection of ITCH with either PD-L1-FLAG (FIG. 2E) or PD-L2-FLAG (FIG. 9I) led to poly-ubiquitination of PD-L1 or PD-L2, respectively
